First the molecules themselves.
B1: HDV Ribozyme (parent)
chain: GGCCGGCAUGGUCCCAGCCUCCUCGCUGGCGCCGGCUGGGCAACAUUCCGAGGGGACCGUCCCCUCGGUAAUGGCGAAUGGGACCCA

The data set covers variants of B1. The data set can be described thus: self-cleavage, relative activity (ratio to wild type); higher = more cleavage; co-transcriptional.
Turning to GGCCGGCAUGGUCCCAGCCUCCUCGCUGGCGCCGGCUGGGCAAAAUUCCGAGGGGACCGUCCCCUCGGUAAUGGCGAAUGGGACCCC [C44A A87C], the self-cleavage came out at 0.74.

For GGCCGGCAUGGUCCCAGCCUCCUCGCUGGCGCCGGCUGGGCAAAAUUCCGAGGGGACCUUCCCCUCGGUAAUGGCGAAUGGGACCCA [C44A G59U], the self-cleavage is 0.776.

As to GGCCGGCAUGGUCCCAGCCUCCUCGCUGGCGCCGGCUGGGCAAAAUUCCGAGGGGACCGUCCCCUCGGUAAUGGCGAAUGGGCCCCA [C44A A83C], the self-cleavage amounted to 0.269.

For GGCCGGCAUGGUCCCAGCCUCCUCGCUGGCGCCGGCUGGGCAAAAUUCCGAGGGGACCGUCCCCUCGGUAAUGGCGAAUGGGUCCCA [C44A A83U], the self-cleavage stood at 0.0615.

For the variant GGCCGGCAUGGUCCCAGCCUCCUCGCUGGCGCCGGCUGGGCAAAAUUCCGAGGGGACCGUCACCUCGGUAAUGGCGAAUGGGACCCA [C44A C62A], the self-cleavage is 0.708.

For GGCCGGCAUGGUCCCAGCCUCCUCGCUGGCGCCGGCUGGGCAAAAUUCCGAGGGGACCGUCGCCUCGGUAAUGGCGAAUGGGACCCA [C44A C62G], the self-cleavage was 0.162.

For the variant GGCCGGCAUGGUCCCAGCCUCCUCGCUGGCGCCGGCUGGGCAAAAUUCCGAGGGGACCGUCUCCUCGGUAAUGGCGAAUGGGACCCA [C44A C62U], the self-cleavage worked out at 0.723.

GGCCGGCAUGGUCCCAGCCUCCUCGCUGGCGCCGGCUGGGCAUCAGUCCGAGGGGACCGUCCCCUCGGUAAUGGCGAAUGGGACCCA [A43U U46G]: the self-cleavage was determined as 0.185.

Take GGCCGGCAUGGUCCCAGCCUCCUCGCUGGCGCCGGCUGGGCAUCACUCCGAGGGGACCGUCCCCUCGGUAAUGGCGAAUGGGACCCA [A43U U46C]: the self-cleavage came to 0.383.

In the case of GGCCGGCAUGGUCCCAGCCUCCUCGCUGGCGCCGGCUGGGCAAAAUUCCGAGGGGACGGUCCCCUCGGUAAUGGCGAAUGGGACCCA [C44A C58G], the self-cleavage is 0.831.

GGCCGGCAUGGUCCCAGCCUCCUCGCUGGCGCCGGCUGGGCAAAAUUCCGAGGGAACCGUCCCCUCGGUAAUGGCGAAUGGGACCCA [C44A G55A]: the self-cleavage was found to be 0.554.

GGCCGGCAUGGUCCCAGCCUCCUCGCUGGCGCCGGCUGGGCAAAAUUCCGAAGGGACCGUCCCCUCGGUAAUGGCGAAUGGGACCCA [C44A G52A]: the self-cleavage was found to be 0.776.

As to GGCCGGCAUGGUCCCAGCCUCCUCGCUGGCGCCGGCUGGGCAAAAUUCCGAUGGGACCGUCCCCUCGGUAAUGGCGAAUGGGACCCA [C44A G52U], the self-cleavage came out at 0.913.

For the variant GGCCGGCAUGGUCCCAGCCUCCUCGCUGGCGCCGGCUGGGCAAAAUUCCGAGGGGACCGUCCCCUCGGUAAUGGCGAUUGGGACCCA [C44A A78U], the self-cleavage was determined as 0.104.

In the case of GGCCGGCAUGGUCCCAGCCUCCUCGCUGGCGCCGGCUGGGCAAAAUUCCGAGGGGACCGUCCCCUCGGUAAUGGCGAGUGGGACCCA [C44A A78G], the self-cleavage was 0.175.

Regarding GGCCGGCAUGGUCCCAGCCUCCUCGCUGGCGCCGGCUGGGCAAAAUUCCUAGGGGACCGUCCCCUCGGUAAUGGCGAAUGGGACCCA [C44A G50U], the self-cleavage turned out to be 0.594.

GGCCGGCAUGGUCCCAGCCUCCUCGCUGGCGCCGGCUGGGCAAAAUUCCAAGGGGACCGUCCCCUCGGUAAUGGCGAAUGGGACCCA [C44A G50A]: the self-cleavage was determined as 0.671.

In the case of GGCCGGCAUGGUCCCAGCCUCCUCGCUGGCGCCGGCUGGGCAAAAUUCCGAGGGGACCGUCCCCUCGGUAAUGGCGAAUGGGAACCA [C44A C84A], the self-cleavage worked out at 0.541.

For the variant GGCCGGCAUGGUCCCAGCCUCCUCGCUGGCGCCGGCUGGGCAAAAUUCCGAGGGGACCGUCCCCUCGGUAAUGGCGAAUGGGAGCCA [C44A C84G], the self-cleavage is 0.0519.

Regarding GGCCGGCAUGGUCCCAGCCUCCUCGCUGGCGCCGGCUGGGCAAAAUUCCGAGGGGACCGUCCCGUCGGUAAUGGCGAAUGGGACCCA [C44A C64G], the self-cleavage was 0.814.

For the variant GGCCGGCAUGGUCCCAGCCUCCUCGCUGGCGCCGGCUGGGCAAAAUUCCGAGGGGACCGUCCCAUCGGUAAUGGCGAAUGGGACCCA [C44A C64A], the self-cleavage was 0.665.

Take GGCCGGCAUGGUCCCAGCCUCCUCGCUGGCGCCGGCUGGGCAAAUUUCCGAGGGGACCGUCCCCUCGGUAAUGGCGAAUGGGACCCA [C44A A45U]: the self-cleavage came out at 0.95.

As to GGCCGGCAUGGUCCCAGCCUCCUCGCUGGCGCCGGCUGGGCAAAGUUCCGAGGGGACCGUCCCCUCGGUAAUGGCGAAUGGGACCCA [C44A A45G], the self-cleavage was 1.01.

In the case of GGCCGGCAUGGUCCCAGCCUCCUCGCUGGCGCCGGCUGGGCAUCAUUCCGAGGGGACCGUCCCCACGGUAAUGGCGAAUGGGACCCA [A43U U65A], the self-cleavage is 0.584.

Take GGCCGGCAUGGUCCCAGCCUCCUCGCUGGCGCCGGCUGGGCAUCAUUCCGAGGGGACCGUCCCCCCGGUAAUGGCGAAUGGGACCCA [A43U U65C]: the self-cleavage was 0.298.

On to GGCCGGCAUGGUCCCAGCCUCCUCGCUGGCGCCGGCUGGGCAUCAUUCCGAGGGGACCGUCCCCUCGGUAAGGGCGAAUGGGACCCA [A43U U72G], for which the self-cleavage amounted to 0.256.

Turning to GGCCGGCAUGGUCCCAGCCUCCUCGCUGGCGCCGGCUGGGCAUCAUUCCGAGGGGACCGUCCCCUCGGUAAAGGCGAAUGGGACCCA [A43U U72A], the self-cleavage was 0.194.

As for GGCCGGCAUGGUCCCAGCCUCCUCGCUGGCGCCGGCUGGGCAAAAUUCCGCGGGGACCGUCCCCUCGGUAAUGGCGAAUGGGACCCA [C44A A51C], the self-cleavage stood at 0.779.

With GGCCGGCAUGGUCCCAGCCUCCUCGCUGGCGCCGGCUGGGCAUCAUUCCGAGGGGACCGUCCCCUCGGUAAUGGCGAAUGGUACCCA [A43U G82U], the self-cleavage worked out at 0.0923.

With GGCCGGCAUGGUCCCAGCCUCCUCGCUGGCGCCGGCUGGGCAUCAUUCCGAGGGGACCGUCCCCUCGGUAAUGGCGAAUGGCACCCA [A43U G82C], the self-cleavage was determined as 0.

As to GGCCGGCAUGGUCCCAGCCUCCUCGCUGGCGCCGGCUGGGCAAAAUUCCGAGGGGACCGUCCUCUCGGUAAUGGCGAAUGGGACCCA [C44A C63U], the self-cleavage is 0.973.

As for GGCCGGCAUGGUCCCAGCCUCCUCGCUGGCGCCGGCUGGGCAAAAUUCCGAGGGGACCGUCCGCUCGGUAAUGGCGAAUGGGACCCA [C44A C63G], the self-cleavage was determined as 0.831.

The record behind these values is the RNAGym collection of RNA variant scans (doi:10.7554/elife.80360).
